Reference: patent US9618524B2, “Method, composition, isolation and identification of a plaque particle and related biomarker” (Plaxgen Inc., priority 2012, dated 2017)

What was measured:
Experiment in all cases: Mass spectroscopy proteomics, semi-quantitative binding affinity of serum proteins (plaqueproteome, Table 2)
Details in all cases: higher number = stronger affinity
[1] = biological target: T1, alpha-synuclein plaque particles (Homo sapiens, UniProt P37840)
T1 construct: 140 amino acids polypeptide
Method in brief: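 AD-subject plasma or serum (800 μL of 50%) mixed with 30 μg preformed alpha-synuclein aggregates for 1 h at 37 °C; Thioflavin S-positive particles isolated by flow sorting. After reduction, acrylamide alkylation and overnight tryptic digestion, serum proteins identified by MS/MS with Sequest and Scaffold.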

[2] = biological target: T2, Abeta-42 plaque particles (Homo sapiens, UniProt P05067)
T2 construct: Abeta 1-42
Method in brief: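 AD patient serum or plasma (50% in PBS) was incubated with Abeta-42 aggregates (30 μg) for 1 h at 37 °C, then stained with Thioflavin S for 30 min. Labeled particles were FACS-sorted, trypsin/Lys-C digested overnight and analyzed by MS/MS. Sequest searched human UniProt; Scaffold/Protein Prophet validated the identifications.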

[3] = system: Low density cholesterol (Chl small) plaque particles; set-up: species or system human
Method in brief: (§1)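 Serum or plasma from atherosclerotic subjects, as 50% serum, was incubated with 30 μg cholesterol aggregates for 1 h at 37 °C. High- and low-density particles were then flow-sorted, trypsin-digested and analysed by MS/MS. Proteins were identified by Sequest search against human UniProt and validated with Protein Prophet.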

[4] = system: High Density cholesterol (Chl Large) plaque particles; set-up: species or system human
Method in brief: as §1

Tau plaque particles = system: Tau plaque particles; set-up: species or system human
Method in brief: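 Synthetic Tau-74 and Tau-275 peptides (1 mg/mL PBS, 37° C, 2 h) aggregated; 30 μg aggregates incubated with 50% serum/plasma 1 h at 37° C, stained with Thioflavin S, and plaque particles sorted by flow cytometry. Bound proteins trypsin-digested and identified by MS/MS against human UniProt.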

Row | Molecule | Semi-quantitative analysis of proteins binding to different plaque particles: Synuclein [1] | Semi-quantitative analysis of proteins binding to different plaque particles: Abeta-42 [2] | Semi-quantitative analysis of proteins binding to different plaque particles: Chl small [3] | Semi-quantitative analysis of proteins binding to different plaque particles: Chl Large [4] | Semi-quantitative analysis of proteins binding to different plaque particles: Tau (Tau plaque particles)
1 | Kallistatin (protein) QLHVEHDGESCSNSSHQQILETGEGSPSLKIAPANADFAFRFYYLIASETPGKNIFFSPLSISAAYAMLSLGACSHSRSQILEGLGFNLTELSESDVHRGFQHLLHTLNLPGHGLETRVGSALFLSHNLKFLAKFLNDTMAVYEAKLFHTNFYDTVGTIQLINDHVKKETRGKIVDLVSELKKDVLMVLVNYIYFKALWEKPFISSRTTPKDFYVDENTTVRVPMMLQDQEHHWYLHDRYLPCSVLRMDYKGDATVFFILPNQGKMREIEEVLTPEMLMRWNNLLRKRNFYKKLELHLPKFSISGSYVLDQILPRLGFTDLFSKWADLSGITKQQKLEASKSFHKATLDVDEAGTEAAAATSFAIKFFSAQTNRHILRFNRPFLVVIFSTSTQSVLFLGKVVDPTKP | 0 | 0 | 0 | 1 | 1
2 | Leucine-rich alpha-2-glycoprotein (protein) VTLSPKDCQVFRSDHGSSISCQPPAEIPGYLPADTVHLAVEFFNLTHLPANLLQGASKLQELHLSSNGLESLSPEFLRPVPQLRVLDLTRNALTGLPPGLFQASATLDTLVLKENQLEVLEVSWLHGLKALGHLDLSGNRLRKLPPGLLANFTLLRTLDLGENQLETLPPDLLRGPLQLERLHLEGNKLQVLGKDLLLPQPDLRYLFLNGNKLARVAAGAFQGLRQLDMLDLSNNSLASVPEGLWASLGQPNWDMRDGFDISGNPWICDQNLSDLYRWLQAQKDKMFSQNDTRCAGPEAVKGQTLLAVAKSQ | 2 | 2 | 3 | 2 | 1
3 | Isoform 2 of Apolipoprotein L1 (protein) EEAGARVQQNVPSGTDTGDPQSKPLGDWAAGTMDPESSIFIEDAIKYFKEKVSTQNLLLLLTDNEAWNGFVAAAELPRNEADELRKALDNLARQMIMKDKNWHDKGQQYRNWFLKEFPRLKSELEDNIRRLRALADGVQKVHKGTTIANVVSGSLSISSGILTLVGMGLAPFTEGGSLVLLEPGMELGITAALTGITSSTMDYGKKWWTQAQAHDLVIKSLDKLKEVREFLGENISNFLSLAGNTYQLTRGIGKDIRALRRARANLQSVPHASASRPRVTEPISAESGEQVERVNEPSILEMSRGVKLTDVAPVSFFLVLDVVYLVYESKHLHEGAKSETAEELKKVAQELEEKLNILNNNYKILQADQEL | 0 | 0 | 1 | 1 | 2
4 | Insulin-like growth factor-binding protein complex (protein) ADPGTPGEAEGPACPAACVCSYDDDADELSVFCSSRNLTRLPDGVPGGTQALWLDGNNLSSVPPAAFQNLSSLGFLNLQGGQLGSLEPQALLGLENLCHLHLERNQLRSLALGTFAHTPALASLGLSNNRLSRLEDGLFEGLGSLWDLNLGWNSLAVLPDAAFRGLGSLRELVLAGNRLAYLQPALFSGLAELRELDLSRNALRAIKANVFVQLPRLQKLYLDRNLIAAVAPGAFLGLKALRWLDLSHNRVAGLLEDTFPGLLGLRVLRLSHNAIASLRPRTFKDLHFLEELQLGHNRIRQLAERSFEGLGQLEVLTLDHNQLQEVKAGAFLGLTNVAVMNLSGNCLRNLPEQVFRGLGKLHSLHLEGSCLGRIRPHTFTGLSGLRRLFLKDNGLVGIEEQSLWGLAELLELDLTSNQLTHLPHRLFQGLGKLEYLLLSRNRLAELPADALGPLQRAFWLDVSHNRLEALPNSLLAPLGRLRYLSLRNNSLRTFTPQPPGLERLWLEGNPWDCGCPLKALRDFALQNPSAVPRFVQAICEGDDCQPPAYTYNNITCASPPEVVGLDLRDLSEAHFAPC | 0 | 0 | 1 | 1 | 1
5 | Carboxypeptidase N subunit 2 (protein) CPMGCDCFVQEVFCSDEELATVPLDIPPYTKNIIFVETSFTTLETRAFGSNPNLTKVVFLNTQLCQFRPDAFGGLPRLEDLEVTGSSFLNLSTNIFSNLTSLGKLTLNFNMLEALPEGLFQHLAALESLHLQGNQLQALPRRLFQPLTHLKTLNLAQNLLAQLPEELFHPLTSLQTLKLSNNALSGLPQGVFGKLGSLQELFLDSNNISELPPQVFSQLFCLERLWLQRNAITHLPLSIFASLGNLTFLSLQWNMLRVLPAGLFAHTPCLVGLSLTHNQLETVAEGTFAHLSNLRSLMLSYNAITHLPAGIFRDLEELVKLYLGSNNLTALHPALFQNLSKLELLSLSKNQLTTLPEGIFDTNYNLFNLALHGNPWQCDCHLAYLFNWLQQYTDRLLNIQTYCAGPAYLKGQVVPALNEKQLVCPVTRDHLGFQVTWPDESKAGGSWDLAVQERAARSQCTYSNPEGTVVLACDQAQCRWLNVQLSPQQGSLGLQYNASQEWDLRSSCGSLRLTVSIEARAAGP | 2 | 0 | 1 | 0 | 1
6 | Corticosteroid-binding globulin (protein) MDPNAAYVNMSNHHRGLASANVDFAFSLYKHLVALSPKKNIFISPVSISMALAMLSLGTCGHTRAQLLQGLGFNLTERSETEIHQGFQHLHQLFAKSDTSLEMTMGNALFLDGSLELLESFSADIKHYYESEVLAMNFQDWATASRQINSYVKNKTQGKIVDLFSGLDSPAILVLVNYIFFKGTWTQPFDLASTREENFYVDETTVVKVPMMLQSSTISYLHDSELPCQLVQMNYVGNGTVFFILPDKGKMNTVIAALSRDTINRWSAGLTSSQVDLYIPKVTISGVYDLGDVLEEMGIADLFTNQANFSRITQDAQLKSSKVVHKAVLQLNEEGVDTAGSTGVTLNLTSKPIILRFNQPFIIMIFDHFTWSSLFLARVMNPV | 1 | 0 | 3 | 2 | 1
7 | Serum amyloid A-4 protein (protein) ESWRSFFKEALQGVGDMGRAYWDIMISNHQNSNRYLYARGNYDAAQRGPGGVWAAKLISRSRVYLQGLIDCYLFGNSSTVLEDSKSNEKAEEWGRSGKDPDRFRPDGLPKKY | 1 | 2 | 1 | 1 | 4
8 | Pigment epithelium-derived factor (protein) QNPASPPEEGSPDPDSTGALVEEEDPFFKVPVNKLAAAVSNFGYDLYRVRSSTSPTTNVLLSPLSVATALSALSLGAEQRTESIIHRALYYDLISSPDIHGTYKELLDTVTAPQKNLKSASRIVFEKKLRIKSSFVAPLEKSYGTRPRVLTGNPRLDLQEINNWVQAQMKGKLARSTKEIPDEISILLLGVAHFKGQWVTKFDSRKTSLEDFYLDEERTVRVPMMSDPKAVLRYGLDSDLSCKIAQLPLTGSMSIIFFLPLKVTQNLTLIEESLTSEFIHDIDRELKTVQAVLTVPKLKLSYEGEVTKSLQEMKLQSLFDSPDFSKITGKPIKLTQVEHRAGFEWNEDGAGTTPSPGLQPAHLTFPLDYHLNQPFIFVLRDTDTGALLFIGKILDPRGP | 4 | 5 | 3 | 4 | 4
